In patent publication US9028816 (Ablynx, dated 2015):

Tests used:
[1] = biological target: T1, human von Willebrand factor (vWF) (human, UniProt P04275 764-2813); assay: ELISA: coated vWF, purified vWF A1-specific VHH, as in Example 7 (Example 20)
T1 construct: also called Human vWF

collagen type I = biological target: T2, collagen type I; assay: ELISA: collagen type I coated at 25 µg/ml, purified VHH in twofold dilutions, detection as in Example 7 (Example 34) [collagen type I]
T2 construct: coated on the microtiter plate

pig serum albumin = pig serum albumin (pig, UniProt P08835 25-607); assay: phage on blotted plasma (1/10)
[2] = biological target: human serum albumin (HSA) (human, UniProt P02768 25-609); assay: phage on blotted plasma (1/10)
[3] = biological target: T3, mouse serum albumin (MSA) (mouse, UniProt P07724 25-608); assay: ELISA: MSA coated at 5 µg/ml, purified nanobody in 1/3 dilutions, detection with rabbit anti-nanobody serum and anti-rabbit alkaline phosphatase, PNPP (Example 50)
T3 construct: also called mouse albumin
T3 sequence (P07724 25-608 limits assumed): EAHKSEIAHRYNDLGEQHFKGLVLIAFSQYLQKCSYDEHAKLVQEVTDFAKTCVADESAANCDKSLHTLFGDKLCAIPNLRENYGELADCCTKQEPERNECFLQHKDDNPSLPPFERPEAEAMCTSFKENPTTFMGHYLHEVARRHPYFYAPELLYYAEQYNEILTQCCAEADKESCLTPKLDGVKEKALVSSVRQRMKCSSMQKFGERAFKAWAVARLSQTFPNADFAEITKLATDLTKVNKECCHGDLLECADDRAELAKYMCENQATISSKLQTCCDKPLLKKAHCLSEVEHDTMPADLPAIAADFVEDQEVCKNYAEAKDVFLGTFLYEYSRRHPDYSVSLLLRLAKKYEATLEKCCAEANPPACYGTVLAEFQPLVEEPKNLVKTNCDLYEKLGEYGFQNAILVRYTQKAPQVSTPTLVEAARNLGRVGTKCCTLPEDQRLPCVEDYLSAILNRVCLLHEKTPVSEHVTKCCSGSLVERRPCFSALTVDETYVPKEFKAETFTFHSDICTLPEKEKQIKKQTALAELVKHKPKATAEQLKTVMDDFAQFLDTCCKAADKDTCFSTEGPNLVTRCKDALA

pig serum albumin, sequence (P08835 25-607 limits assumed): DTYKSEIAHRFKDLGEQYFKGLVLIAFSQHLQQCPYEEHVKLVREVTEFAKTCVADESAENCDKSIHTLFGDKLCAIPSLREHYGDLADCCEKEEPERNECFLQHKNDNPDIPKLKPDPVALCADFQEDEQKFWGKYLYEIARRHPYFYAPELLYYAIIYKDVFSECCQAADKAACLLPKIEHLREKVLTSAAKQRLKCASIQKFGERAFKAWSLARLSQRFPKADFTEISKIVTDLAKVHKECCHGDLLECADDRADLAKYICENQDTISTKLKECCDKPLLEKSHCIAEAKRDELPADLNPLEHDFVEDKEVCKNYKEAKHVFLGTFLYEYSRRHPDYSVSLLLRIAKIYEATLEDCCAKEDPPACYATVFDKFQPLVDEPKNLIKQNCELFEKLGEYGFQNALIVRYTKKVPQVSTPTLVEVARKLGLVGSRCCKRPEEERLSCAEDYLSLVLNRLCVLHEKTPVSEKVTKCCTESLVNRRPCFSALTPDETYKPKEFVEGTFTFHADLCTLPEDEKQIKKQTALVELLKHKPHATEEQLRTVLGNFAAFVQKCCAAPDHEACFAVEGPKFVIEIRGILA

B1: Z29 (VHH)
VHH: QVQLQESGGGSVQAGDSLTLSCAASGRTFSMHAMGWFRQAPGKEREFVAAISPSAFTEYADSLKGRFTVSRDNAKKLVWLQMNGLKPEDTAAYYCAARRGAFTATTAPLYDYWGQGTQVTVSS
[1]
  EC50 (read off the curve): ~70 nM

B2: 3P1-31 (VHH)
VHH: QVQLQESGGGLVQAGGSLRLSCAASGRTFRRYAMGWYRQAPGKQRELVAAITSGGRTSVADTVKGRFTISSDNAKNTVYLQMNSLKPEDAAVYYCTLYNSTTNYYNQSPSSWGQGTQVTVSS
Collagen type I
  EC50 (read off the curve): ~200 nM

B3: 3L-41 (VHH)
VHH: QVQLQDSGGGLVQAGGSLRLSCAASGRTFRRYAMGWYRQAPGKQRVLVAAITSNGRPSVADSVKGRFTISSDTAKNTVYLQMNSLKPEDTALYYCTLYNTSADYYNQSPSSWGQGTQVTVLS
Collagen type I
  EC50 (read off the curve): ~10 nM

B4: MSA24 (VHH)
VHH: QVQLQESGGGLVQPGNSLRLSCAASGFTFRNFGMSWVRQAPGKEPEWVSSISGSGSNTIYADSVKDRFTISRDNAKSTLYLQMNSLKPEDTAVYYCTIGGSLSRSSQGTQVTVSS
Pig serum albumin
  binding result: binds
[2]
  binding result: binds
[3]
  EC50 (read off the curve): ~0.6 nM
